Results as given in the nanobody polyreactivity screen of Harvey et al. (2022).

Experiment: yeast display, Sf9 membrane polyspecificity reagent, FACS + sequencing; frameworks hold sequencing errors
Summary of the method: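 Nanobodies came from a synthetic yeast display library in Saccharomyces cerevisiae BJ5465, induced with galactose for 36–48 hours and stained for 1 hour at 4 °C with 10% biotinylated, detergent-solubilized Sf9 membrane reagent. Cells were enriched on streptavidin microbeads and then FACS-sorted, with low and high (top ~1%) gates set on anti-HA fluorescence for expression and streptavidin fluorescence for reagent binding. Each polyreactivity label reflects the gate a clone came from. Genes were amplified by colony PCR, sequenced by MiSeq 2 × 250 and filtered by CDR length.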

Sequence | polyreactivity (PSR sort gate)
QVQLVESGGGLVQAGGSLRLSCAASGRTFKSYAMGWYRQAPWKESELVAAISYSGGSTYYADSVKGRVTISRDNAKNTVYLQMNSLKPEDTAVYYCNVVSKVIRGLSGDGYWGVGTQVTVSS | high polyreactivity
QVQLVESGGGLVQAGGSLRLSCAASGSTVEYNAMGWYRQAPGKERELVASSTNYADSVKGRFTISRDNAKNTVYLQMNSLKPEDTAVYYCAASSLPHDSYRHSYLYEYWGQGTQVTVSS | low polyreactivity
QVQLVESGGGLVQAGGSLRLSCAASGSTFGLNAMGWYRQAPGKERELVAAITWSGASTYYADSVKGRFTISRDNAKNTVYLQMNSLKPEDTAVYYCAKDIPTDYKDVNYWGQGTQVTVSS | low polyreactivity
QVQLVESGGGLVQAGGSLRLSCAASGITFSTYAMGWYRQAPGKERELVAAINWSGGSTRYADSVKGRFTISRDNAKNTVYLQMNSLKPEDTAVYYCAAEVQGQVGEFDYWGQGTQVTVSS | low polyreactivity
QVQLVESGGGLVQAGGSLRLSCAASGSTFGNNAKGWYRQAPGKERELVAAITFRGTSTYADSVKGRFTISRDYAKNTVYLQMNSLKPEDTAVYYCAAVVYFVSYRFYYWGQGTQVTVSS | high polyreactivity
QVQLVESGGGLVQAGGSLRLSCAASGRIFFRNALGWYRQAPGKERELVAVINTGGSTNYADSVKGRFTISRDNAKNTVYLQMNSLTPEDTAVYYCAVDRASRRTYNQYGYWGQGTQVTVSS | high polyreactivity
QVQLVESVGGLVQAGGSLRLSCAASGRIFYLYAMGWYRQEPGKERELVAVISYGGDRTSYADSVKGRFTISRDNAKNTVYLQMNSLKPEDTAVYYCAARPFYRGYYYWGQGTQVTVSS | high polyreactivity
QVQLVESGGGLVQAGGSLRLSSAASGRISQNAIGWYRQAPGKERELVAAITFSGGSTYYADSVKGRFTISRDNAKNTVFLQMNSLKPEDTAVYYCAAEDRPLYWRFPDEMDYWGQGTQVTVSS | low polyreactivity
QVQLVESGGGLVQAAGSLRLSCAASGSIFRPYAMGWYRQAPGKERELVATITSRGGSTYYADSVKGRFTISRDNAKNTVYLQMNSMKPEDTAVYYCAARYISSYGRTQDYSRYDYWGQGTQVNVSS | high polyreactivity
QVQLVESGGGLVQAGGSLRLSCAASGFTFSWNVMGWYRQAPGKERELVAAISTSYGGTYYADSVKGRFTISRDNAKNTVYLQMNSLKPEDTAVYYCATLYYPNTSYEYYYWGQGTQVTVSS | low polyreactivity
QVQLVESGGGLVQAGGSLRLSCAASGSTFYYAIGRYRQAPGKERELVASITFSTGSTYYADSVKGRFTISRDNAKNTVYLQLNSLKPEDTAVYYCATGVDTYSLTVEHDSWGQGTQVTVSS | low polyreactivity
QDQLVESGGGLVQAGGSLRLSCAASGFTFTRYAMGWYRQAPGKERELVAAITQRGGSTYYADSVKGRFTISRDNAKNTVYLQMNSLKPEDTAVYYCAAVQTRRWYGYLYNYWGQGTQVTVSS | high polyreactivity
QVQLVESGGGLVQAGGSLRLSCAASGFTFRSNAMGWYRQAPGKERELVAAISYSGDSTYYADSVKGRFTISRDTAKNTVYLQMNSLKPEDTAVYYCAADGYDQWGRVGVYLIWTSYDYWGQGTQVTVSS | high polyreactivity
QVQLVESGVGLVQAGGSLRLSCAASGIIFKVYAMGWYRQAPGKERELVAAISKSGGSTYYADSVKGRFTISRDNAKNTVYLQMNSLKPEDTAVYYCAARDYARYASYYYWGLGTQVTVSS | high polyreactivity
QVQLVESGGGLVQAGGSLRLSCAASGSTFGPNAMGWYRQAPGKERELVAAITDSGVSTYYAVSVKGRFTISRDNAKYTVYLQMNSLKPEDTAVYYCATDWYLHRFDYWGQGTQVTVSS | low polyreactivity
QVQLVESGGGLVQAGGSLRLSCAASGIIFGLYTMGWYRQAPGKERELVAAISDSGGRTYYADSVKGRFTISRDNAKNTVYLQMNSLKPEDTAVYYCAAEFWYVLEYNYWGQGTQVTVSS | high polyreactivity

Sequence | polyreactivity (PSR sort gate)
QVQLVESGGGLVQAGGSLRLSCAASGSTFTTYAMGWYRQAPGKERELVAAISYGGGSTYYADSVKGRFTISRDNAKNTVYLQMNSLKPEDTAVYFCAAVAWASDGYDSWGQGTQVTVSS | low polyreactivity
QVQLVESGGGLFQAGGSLRLSCAASGRIVGLYAMGWYRPAPGKERELVAAISRGGSTNYADSVKGRFTISRDNAKNTVYLQMNSQKPEDPAVYYCNARYVKYYTYLYNYDYWGQGTQVTVSS | high polyreactivity
QVQLVESGGGLVQAGGSLRLSCAASGFTFDEKAMGWYRQAPGINYSGASTYYADSVKGRFTISRDNAKNTVYLQMNSLKPEDTAVYYCAAEVVAQMNYWGQGTQVTVSS | low polyreactivity
QVQLVESGGGLVQAGGSLRLSCAASGFIYYGYAMGWYRQAPGKEMELVAAITSGGSTTYADSVKGRFTISRDNAKNTVYLQMNSLKPVDTAVYYGAASVCREVGWGQGTQVTVSS | high polyreactivity
QVQLVESGGGLVQAGGSLRLSCAASGRTFGRYAMGWYRQAPGKERELVATISVSSGSTYYADSVKGRFTISRDTAKNTVYLQMNSLKPEDTAVYYCNAVYGRQYRGYNYKYYYWGQGTQVTVSS | high polyreactivity
QVQLVESGGGLFKAGGSLRLSCAASGSIFRYYTMGWYRQAPGKERELVAAINGSGGSTYYADSVKGRFTISRDNAKNTVYLQMNSLKPEDTAVYYCNRVTKEYGLRQYYYWGQGTQVTVSS | low polyreactivity
QVQLVESGGGLVQAGGSLRLSCAASGNTCYQYAMGWYRQAPGKERELVAAISSSGGSTYYADSVKGRFTISRDNAQNTVYLQMNSLKTEDTAVYYCATDKWYGYYYWGQGTQVTVSS | low polyreactivity
QVQLVESGGGLVQAGGSRRLSCAASGRIFRGYAMGWYRQAPGKERELVAAISASGGSTYYADSVKGRYTISRDIAKNTVYLLMISLKQVDTAVYYCATGGYARYDFWGQGTQVTVSS | high polyreactivity
QVQLVESGGGLVQAGGSLRLSCAASGSPFGYYAMGWYRQATGKERELVAAITRSGGRTYYADSVKGRFTISRDNAKNTVYLQMNSLKPEDTAVYYCAADRVRRPSPGGMDFWGQGTQVTVSS | high polyreactivity
QVQLVESGGGLVQAGGSLRLSCAASGSIFYGNAMGWYRQAPGKERELVASITYSGGTTNYADSVKGRFTISRDNAKNTVYLQMNCLKPEDTAVYYCNADIYPDRYGSTNYDFNYWGQGTQVTVSS | low polyreactivity
QVQLVESGGGLVQAGGSLRLSCAASGSTLAKYAMGWYRQAPGKERELVAAISRSGGRTYYADSEKGRFTISRDNAKNSVYLQMNSLKPEETAVYYCAARARSSRTYHDDYWGQGTQVTVSS | high polyreactivity
QVQLVESGGGFVQAGGSLRLSCAASGSIFSVNTMGWYRQAPGKERELVATIRTGDSTNYADSVTGRFTISRDNAKNTVYLQMNSLKPEDTAVDYCAAEWSSLNFDYWGQGTQVTVSS | low polyreactivity
QVQLVESGGGLVQAGASLRLSCAASGIIFPRYAMGWSRQAPGKERDLVAAISYSGGSTYYADSVKGRFTISRDNAKNTVYLQMNSLKPEDPAVYYCAAKWGWKVGYSYYYWGQGTQVTVSS | high polyreactivity
QVQLVESGGGLVHAGGSLRLSCAASGRIFPSYAMGWYRQAPGKERELVAAISYSGASTYYADSVKGRFTISRDNAKNTVYLQMNSLKPEDTAVYYCATDHESVRVLVSSTSDYDYWGQGTQVTVSS | low polyreactivity
QVQLVESGGGLVQAGGSLRLSCAASGRTFRYYAMGWYRQAPGKERELVAAISSGGSTNYADSVKGRFTISRDNAKITVYLQMNSLKPEDTAVYYCAALWSGNKFNYWGQGTQVTVSS | low polyreactivity
QVQLVESGGGLVQAGGSLRLSCAASGSTFPAYTMGWYRQAPGKERELVAAINVSSGGSTYYADSVKGRFTISRDNAKNTVYLQRNSLKPEDTAVYYCATHGYVAHPYYYPYYYWGQGTQVTVSS | low polyreactivity
